Test results as given in patent US20130156764A1, “NEUTRALIZATION OF FLT3 LIGAND AS A LEUKEMIA THERAPY” (The Johns Hopkins University, priority 2010, published 2013).

What was measured:
[1] = tested on: FLT3 (wt, ITD, TKD) in FL−/− MEF cells; experiment: FL stimulation, FLT3 phosphorylation in FL−/− MEF cells expressing wtFLT3, FLT3/ITD, FLT3/TKD; format: cell-based, mice
Description: Embryos were removed from female FL^−/− mice (purchased from Taconic, Hudson, N.Y.) on day 13 or 14 of pregnancy. Internal organs and heads were removed. The remainder of the embryos were washed, minced, digested with Trypsin/EDTA, and then resuspended in DMEM containing 10% FBS followed by centrifuging at 1000×g for 5 minutes. The cell pellet was resuspended in DMEM containing 10% FBS and cultured at 37° C. with 5% CO2. After 3 passages, the cells were transfected with CMV-SV40-large T antigen to immortalize FL^−/− MEF cells. The FL^−/− MEF cells represent bulk cells after transformation.
Retrovirus was obtained by harvesting supernatant 48 hours after transfection of 293T cells with pBabePuro constructs. […]
To eliminate the complicating factor of autocrine, paracrine, and intracrine FL expression on mutant FLT3 activation, FL^−/− MEF cells were established from FL^−/− mice. […] The addition of FL induced more than a 4-fold increase in FLT3 phosphorylation in FL^−/− MEF-FLT3, FL^−/− MEF-ITD, and FL^−/− MEF-TKD cells (quantitated by GS-800 Calibrated Densitometer (Bio-Rad) and Quantity One software (Bio-Rad)) (FIG. 10B, lanes 4, 6, and 8 versus lanes 3, 5, and 7). […]
The effect of endogenous FL expression on the activation of FLT3/ITD and FLT3/TKD mutant receptors were next examined. […] The expression of FL was assessed by the detection of the secreted form of FL in the cell culture supernatant. […]

[2] = tested on: MAPK phosphorylation; experiment: FL stimulation, MAPK phosphorylation in primary AML blasts with homozygous FLT3/ITD; format: cell-based, human; conditions: 100 ng/mL FL
Description: To study whether further activation of mutant FLT3 receptors in response to FL also occurs in primary cells, experiments were carried on primary AML blasts expressing homozygous FLT3/ITD mutations (i.e., no detectable wild type FLT3 by PCR). The blasts were stimulated with 100 ng/mL FL. […] The survival of AML blasts was assessed by culturing them in complete medium with and without FL for 4 days.

B1: FL: Recombinant human FL (fms-related tyrosine kinase ligand) purchased from PeproTech; SEQ ID NO: 1 (protein, listed as Homo sapiens)
chain: MTVLAPAWSPTTYLLLLLLLSSGLSGTQDCSFQHSPISSDFAVKIRELSDYLLQDYPVTVASNLQDEELCGGLWRLVLAQRWMERLKTVAGSKMQGLLERVNTEIHFVTKCAFQPPPSCLRFVQTNISRLLQETSEQLVALKPWITRQNFSRCLELQCQPDSSTLPPPWSPRPLEATAPTAPQPPLLLLLLLPVGLLLLAAAWCLHWQRTRRRTPRPGEQVPPVPSPQDLLLVEH
For B1, the “increase in FLT3 phosphorylation” value ([1]; FL−/− MEF-FLT3, MEF-ITD and MEF-TKD cells, serum-free, FL 100 ng/mL 15 minutes) was greater than 4 fold, the “FLT3 phosphorylation in cells expressing endogenous FL” value ([1]; exogenous FL 100 ng/mL, MEF-FLT3, MEF-ITD, MEF-TKD cells stably expressing FL) was “did not further augment” and the “samples with increased MAPK phosphorylation” value [2] was “two out of four samples”.
